Changes are numbered by the printed parent chain. Numbers in names are those of the source.
T1: Kapβ2 (untagged, GST removed) (human, UniProt Q92973-2 1-890)
T1 construct: Karyopherin β2 (Kapβ2, Transportin-1, TNPO1), human; used for ITC and turbidity assays; also called Karyopherin-β2; Transportin-1; source: E. coli BL21 (DE3), purified (GSH column, Tev cleavage, anion exchange, SEC Superdex200)
T1 sequence (looked up): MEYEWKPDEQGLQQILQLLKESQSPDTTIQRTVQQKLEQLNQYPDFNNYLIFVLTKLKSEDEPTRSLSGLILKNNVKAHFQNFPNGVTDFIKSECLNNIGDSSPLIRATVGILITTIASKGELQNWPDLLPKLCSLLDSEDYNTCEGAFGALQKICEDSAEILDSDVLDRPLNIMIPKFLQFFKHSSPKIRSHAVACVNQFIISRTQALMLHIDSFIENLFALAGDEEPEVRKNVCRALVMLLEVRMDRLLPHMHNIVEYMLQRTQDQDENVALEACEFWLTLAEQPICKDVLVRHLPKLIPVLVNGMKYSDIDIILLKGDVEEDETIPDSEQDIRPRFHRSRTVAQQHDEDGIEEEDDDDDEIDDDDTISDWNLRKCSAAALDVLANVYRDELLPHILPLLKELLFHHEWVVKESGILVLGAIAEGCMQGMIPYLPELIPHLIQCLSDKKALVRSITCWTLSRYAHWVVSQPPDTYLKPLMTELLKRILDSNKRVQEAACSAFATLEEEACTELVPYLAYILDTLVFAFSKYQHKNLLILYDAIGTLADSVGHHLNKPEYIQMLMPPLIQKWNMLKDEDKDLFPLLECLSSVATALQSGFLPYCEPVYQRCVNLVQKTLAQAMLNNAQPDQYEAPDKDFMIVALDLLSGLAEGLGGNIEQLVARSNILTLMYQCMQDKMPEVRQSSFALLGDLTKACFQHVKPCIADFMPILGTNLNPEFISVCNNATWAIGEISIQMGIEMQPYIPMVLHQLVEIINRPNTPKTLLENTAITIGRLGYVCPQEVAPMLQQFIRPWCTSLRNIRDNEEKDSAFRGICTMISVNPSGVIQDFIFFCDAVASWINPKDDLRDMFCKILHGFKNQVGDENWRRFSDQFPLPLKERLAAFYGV

T2: GST-Kapβ2 (Karyopherin-β2) (human, UniProt Q92973-2 1-890)
T2 construct: Karyopherin β2 (Kapβ2, Transportin-1, TNPO1), human; GST-importin eluted with glutathione and immobilised again on GSH beads for pull-downs; also called Transportin-1; TNPO1; source: E. coli BL21 (DE3), purified (GSH Sepharose, anion exchange, SEC)
T2 sequence (looked up): T1 sequence (looked up)

B1: MBP-FUS(1–500) (domain or fragment, UniProt P35637 1-500, looked up)
chain: MASNDYTQQATQSYGAYPTQPGQGYSQQSSQPYGQQSYSGYSQSTDTSGYGQSSYSSYGQSQNTGYGTQSTPQGYGSTGGYGSSQSSQSSYGQQSSYPGYGQQPAPSSTSGSYGSSSQSSSYGQPQSGSYSQQPSYGGQQQSYGQQQSYNPPQGYGQQNQYNSSSGGGGGGGGGGNYGQDQSSMSSGGGSGGGYGNQDQSGGGGSGGYGQQDRGGRGRGGSGGGGGGGGGGYNRSSGGYEPRGRGGGRGGRGGMGGSDRGGFNKFGGPRDQGSRHDSEQDNSDNNTIFVQGLGENVTIESVADYFKQIGIIKTNKKTGQPMINLYTDRETGKLKGEATVSFDDPPSAKAAIDWFDGKEFSGNPIKVSFATRRADFNRGGGNGRGGRGRGGPMGRGGYGGGGSGGGGRGGFPSGGGGGGGQQRAGDWKCPNPTCENMNFSWRNECNQCKAPKPDGPGGGPGGSHMGGNYGDDRRGGRGGYDRGGYRGRGGDRGGFRGGRGG
notes: FUS residues 1–500; in the turbidity assays MBP is cut off by Tev during the assay; source: E. coli BL21 (DE3), purified (amylose resin, SEC); not shown: MBP, N-terminal, kept
B2: MBP-FUS(1–370) (domain or fragment, UniProt P35637 1-370, looked up)
chain: MASNDYTQQATQSYGAYPTQPGQGYSQQSSQPYGQQSYSGYSQSTDTSGYGQSSYSSYGQSQNTGYGTQSTPQGYGSTGGYGSSQSSQSSYGQQSSYPGYGQQPAPSSTSGSYGSSSQSSSYGQPQSGSYSQQPSYGGQQQSYGQQQSYNPPQGYGQQNQYNSSSGGGGGGGGGGNYGQDQSSMSSGGGSGGGYGNQDQSGGGGSGGYGQQDRGGRGRGGSGGGGGGGGGGYNRSSGGYEPRGRGGGRGGRGGMGGSDRGGFNKFGGPRDQGSRHDSEQDNSDNNTIFVQGLGENVTIESVADYFKQIGIIKTNKKTGQPMINLYTDRETGKLKGEATVSFDDPPSAKAAIDWFDGKEFSGNPIKVSFAT
notes: FUS residues 1–370 (missing RGG2-ZnF-RGG3-PYNLS); also called FUS LC-RGG1; source: E. coli BL21 (DE3), purified (amylose resin, SEC); not shown: MBP, N-terminal, kept
B3: MBP-FUS PY-NLS (residues 475–526) (domain or fragment, UniProt P35637 475-526, looked up)
chain: GRGGYDRGGYRGRGGDRGGFRGGRGGGDRGGFGPGKMDSRGEHRQDRRERPY
notes: FUS residues 475–526 (PY-NLS); also called FUS(475–526); WT FUS^PY-NLS; source: E. coli BL21 (DE3), purified (amylose resin, SEC); not shown: MBP, N-terminal, kept
B4: MBP-FUS PY-NLS (P525L) (residues 475–526) (domain or fragment, UniProt P35637 475-526, looked up)
chain: B3 chain with P51L
notes: FUS residues 475–526 with the ALS mutation P525L; also called FUS(P525L)^PY-NLS; source: E. coli BL21 (DE3), purified (amylose resin, SEC); not shown: MBP, N-terminal, kept
B5: MBP-FUS(371–500) (RGG2-ZnF-RGG3) (domain or fragment, UniProt P35637 371-500, looked up)
chain: RRADFNRGGGNGRGGRGRGGPMGRGGYGGGGSGGGGRGGFPSGGGGGGGQQRAGDWKCPNPTCENMNFSWRNECNQCKAPKPDGPGGGPGGSHMGGNYGDDRRGGRGGYDRGGYRGRGGDRGGFRGGRGG
notes: also called FUS RGG2-ZnF-RGG3; source: E. coli BL21 (DE3), purified (amylose resin, SEC); not shown: MBP, N-terminal, kept
B6: MBP-FUS(371–452) (RGG2-ZnF) (domain or fragment, UniProt P35637 371-452, looked up)
chain: RRADFNRGGGNGRGGRGRGGPMGRGGYGGGGSGGGGRGGFPSGGGGGGGQQRAGDWKCPNPTCENMNFSWRNECNQCKAPKP
notes: also called FUS RGG2-ZnF; source: E. coli BL21 (DE3), purified (amylose resin, SEC); not shown: MBP, N-terminal, kept
B7: MBP-FUS (full length) (natural protein, UniProt P35637 1-526, looked up)
chain: MASNDYTQQATQSYGAYPTQPGQGYSQQSSQPYGQQSYSGYSQSTDTSGYGQSSYSSYGQSQNTGYGTQSTPQGYGSTGGYGSSQSSQSSYGQQSSYPGYGQQPAPSSTSGSYGSSSQSSSYGQPQSGSYSQQPSYGGQQQSYGQQQSYNPPQGYGQQNQYNSSSGGGGGGGGGGNYGQDQSSMSSGGGSGGGYGNQDQSGGGGSGGYGQQDRGGRGRGGSGGGGGGGGGGYNRSSGGYEPRGRGGGRGGRGGMGGSDRGGFNKFGGPRDQGSRHDSEQDNSDNNTIFVQGLGENVTIESVADYFKQIGIIKTNKKTGQPMINLYTDRETGKLKGEATVSFDDPPSAKAAIDWFDGKEFSGNPIKVSFATRRADFNRGGGNGRGGRGRGGPMGRGGYGGGGSGGGGRGGFPSGGGGGGGQQRAGDWKCPNPTCENMNFSWRNECNQCKAPKPDGPGGGPGGSHMGGNYGDDRRGGRGGYDRGGYRGRGGDRGGFRGGRGGGDRGGFGPGKMDSRGEHRQDRRERPY
notes: Fused in Sarcoma (FUS), full length; in the turbidity assays MBP is cut off by Tev during the assay; also called FL-FUS; MBP-FL FUS; source: E. coli BL21 (DE3), purified (amylose resin, SEC); not shown: MBP, N-terminal, kept
B8: MBP-FUS(1–452) (domain or fragment, UniProt P35637 1-452, looked up)
chain: MASNDYTQQATQSYGAYPTQPGQGYSQQSSQPYGQQSYSGYSQSTDTSGYGQSSYSSYGQSQNTGYGTQSTPQGYGSTGGYGSSQSSQSSYGQQSSYPGYGQQPAPSSTSGSYGSSSQSSSYGQPQSGSYSQQPSYGGQQQSYGQQQSYNPPQGYGQQNQYNSSSGGGGGGGGGGNYGQDQSSMSSGGGSGGGYGNQDQSGGGGSGGYGQQDRGGRGRGGSGGGGGGGGGGYNRSSGGYEPRGRGGGRGGRGGMGGSDRGGFNKFGGPRDQGSRHDSEQDNSDNNTIFVQGLGENVTIESVADYFKQIGIIKTNKKTGQPMINLYTDRETGKLKGEATVSFDDPPSAKAAIDWFDGKEFSGNPIKVSFATRRADFNRGGGNGRGGRGRGGPMGRGGYGGGGSGGGGRGGFPSGGGGGGGQQRAGDWKCPNPTCENMNFSWRNECNQCKAPKP
notes: source: E. coli BL21 (DE3), purified (amylose resin, SEC); not shown: MBP, N-terminal, kept
B9: MBP-FUS(1–430) (domain or fragment, UniProt P35637 1-430, looked up)
chain: MASNDYTQQATQSYGAYPTQPGQGYSQQSSQPYGQQSYSGYSQSTDTSGYGQSSYSSYGQSQNTGYGTQSTPQGYGSTGGYGSSQSSQSSYGQQSSYPGYGQQPAPSSTSGSYGSSSQSSSYGQPQSGSYSQQPSYGGQQQSYGQQQSYNPPQGYGQQNQYNSSSGGGGGGGGGGNYGQDQSSMSSGGGSGGGYGNQDQSGGGGSGGYGQQDRGGRGRGGSGGGGGGGGGGYNRSSGGYEPRGRGGGRGGRGGMGGSDRGGFNKFGGPRDQGSRHDSEQDNSDNNTIFVQGLGENVTIESVADYFKQIGIIKTNKKTGQPMINLYTDRETGKLKGEATVSFDDPPSAKAAIDWFDGKEFSGNPIKVSFATRRADFNRGGGNGRGGRGRGGPMGRGGYGGGGSGGGGRGGFPSGGGGGGGQQRAGDWKCPN
notes: FUS residues 1–430 (missing ZnF-RGG3-PYNLS); source: E. coli BL21 (DE3), purified (amylose resin, SEC); not shown: MBP, N-terminal, kept
B10: MBP-FUS(121–500) (domain or fragment, UniProt P35637 121-500, looked up)
chain: SYGQPQSGSYSQQPSYGGQQQSYGQQQSYNPPQGYGQQNQYNSSSGGGGGGGGGGNYGQDQSSMSSGGGSGGGYGNQDQSGGGGSGGYGQQDRGGRGRGGSGGGGGGGGGGYNRSSGGYEPRGRGGGRGGRGGMGGSDRGGFNKFGGPRDQGSRHDSEQDNSDNNTIFVQGLGENVTIESVADYFKQIGIIKTNKKTGQPMINLYTDRETGKLKGEATVSFDDPPSAKAAIDWFDGKEFSGNPIKVSFATRRADFNRGGGNGRGGRGRGGPMGRGGYGGGGSGGGGRGGFPSGGGGGGGQQRAGDWKCPNPTCENMNFSWRNECNQCKAPKPDGPGGGPGGSHMGGNYGDDRRGGRGGYDRGGYRGRGGDRGGFRGGRGG
notes: as for B8
B11: MBP-FUS(277–500) (domain or fragment, UniProt P35637 277-500, looked up)
chain: SEQDNSDNNTIFVQGLGENVTIESVADYFKQIGIIKTNKKTGQPMINLYTDRETGKLKGEATVSFDDPPSAKAAIDWFDGKEFSGNPIKVSFATRRADFNRGGGNGRGGRGRGGPMGRGGYGGGGSGGGGRGGFPSGGGGGGGQQRAGDWKCPNPTCENMNFSWRNECNQCKAPKPDGPGGGPGGSHMGGNYGDDRRGGRGGYDRGGYRGRGGDRGGFRGGRGG
notes: as for B8

Each binder was assayed against T1, Kapβ2 (untagged, GST removed) (assay: ITC; reversed set-up: 10 μM MBP-FUS protein in the cell, 100 μM or 200 μM Kapβ2 in the syringe; 20 mM Tris–HCl, 150 mM NaCl, 10% glycerol, 2 mM BME; 20 °C; single class of binding sites; 'apparent' KD for FUS(1–370)). Conditions: both partners purified.
For B1, the Kd was 160 nM.
For B2, the Kd was 35000 nM.

The binders below were run against T1, Kapβ2 (untagged, GST removed) (assay: ITC; 10 μM Kapβ2 in the cell, 100 μM or 200 μM MBP-FUS protein in the syringe; 20 mM Tris–HCl, 150 mM NaCl, 10% glycerol, 2 mM BME; 20 °C; single class of binding sites, global analysis of duplicates or triplicates). Conditions: both partners purified.
For B3, the Kd was 31 nM.
B4 gave a Kd of 180 nM.
In the case of B5, the Kd is reported as 170 nM.
B6 showed a Kd of 4000 nM.

What follows are binders tested against T2, GST-Kapβ2 (Karyopherin-β2) (assay: pull-down; 4–8 μM GST-importin (or GST) immobilised on 50 μL GSH beads; 4–8 μM MBP-FUS protein or GSP1 added in 100 μL; 20 mM HEPES pH 7.4, 110 mM potassium acetate, 2 mM magnesium acetate, 2 mM DTT, 15% glycerol; 30 min at 25 °C, three washes; Coomassie-stained SDS-PAGE). Conditions: both partners purified.
B7: binds.
B8: binds.
B9: binds.
B10: binds.
B11: binds.
